Patent US20230242666A1
One block for each binder: values may come before it.

Target: chondroitin sulfate proteoglycan 4 (CSPG4) (human) (UniProt Q6UVK1)
Assay: cell-based or functional assay

Chain of UniProt Q6UVK1 (Q6UVK1 30-2322): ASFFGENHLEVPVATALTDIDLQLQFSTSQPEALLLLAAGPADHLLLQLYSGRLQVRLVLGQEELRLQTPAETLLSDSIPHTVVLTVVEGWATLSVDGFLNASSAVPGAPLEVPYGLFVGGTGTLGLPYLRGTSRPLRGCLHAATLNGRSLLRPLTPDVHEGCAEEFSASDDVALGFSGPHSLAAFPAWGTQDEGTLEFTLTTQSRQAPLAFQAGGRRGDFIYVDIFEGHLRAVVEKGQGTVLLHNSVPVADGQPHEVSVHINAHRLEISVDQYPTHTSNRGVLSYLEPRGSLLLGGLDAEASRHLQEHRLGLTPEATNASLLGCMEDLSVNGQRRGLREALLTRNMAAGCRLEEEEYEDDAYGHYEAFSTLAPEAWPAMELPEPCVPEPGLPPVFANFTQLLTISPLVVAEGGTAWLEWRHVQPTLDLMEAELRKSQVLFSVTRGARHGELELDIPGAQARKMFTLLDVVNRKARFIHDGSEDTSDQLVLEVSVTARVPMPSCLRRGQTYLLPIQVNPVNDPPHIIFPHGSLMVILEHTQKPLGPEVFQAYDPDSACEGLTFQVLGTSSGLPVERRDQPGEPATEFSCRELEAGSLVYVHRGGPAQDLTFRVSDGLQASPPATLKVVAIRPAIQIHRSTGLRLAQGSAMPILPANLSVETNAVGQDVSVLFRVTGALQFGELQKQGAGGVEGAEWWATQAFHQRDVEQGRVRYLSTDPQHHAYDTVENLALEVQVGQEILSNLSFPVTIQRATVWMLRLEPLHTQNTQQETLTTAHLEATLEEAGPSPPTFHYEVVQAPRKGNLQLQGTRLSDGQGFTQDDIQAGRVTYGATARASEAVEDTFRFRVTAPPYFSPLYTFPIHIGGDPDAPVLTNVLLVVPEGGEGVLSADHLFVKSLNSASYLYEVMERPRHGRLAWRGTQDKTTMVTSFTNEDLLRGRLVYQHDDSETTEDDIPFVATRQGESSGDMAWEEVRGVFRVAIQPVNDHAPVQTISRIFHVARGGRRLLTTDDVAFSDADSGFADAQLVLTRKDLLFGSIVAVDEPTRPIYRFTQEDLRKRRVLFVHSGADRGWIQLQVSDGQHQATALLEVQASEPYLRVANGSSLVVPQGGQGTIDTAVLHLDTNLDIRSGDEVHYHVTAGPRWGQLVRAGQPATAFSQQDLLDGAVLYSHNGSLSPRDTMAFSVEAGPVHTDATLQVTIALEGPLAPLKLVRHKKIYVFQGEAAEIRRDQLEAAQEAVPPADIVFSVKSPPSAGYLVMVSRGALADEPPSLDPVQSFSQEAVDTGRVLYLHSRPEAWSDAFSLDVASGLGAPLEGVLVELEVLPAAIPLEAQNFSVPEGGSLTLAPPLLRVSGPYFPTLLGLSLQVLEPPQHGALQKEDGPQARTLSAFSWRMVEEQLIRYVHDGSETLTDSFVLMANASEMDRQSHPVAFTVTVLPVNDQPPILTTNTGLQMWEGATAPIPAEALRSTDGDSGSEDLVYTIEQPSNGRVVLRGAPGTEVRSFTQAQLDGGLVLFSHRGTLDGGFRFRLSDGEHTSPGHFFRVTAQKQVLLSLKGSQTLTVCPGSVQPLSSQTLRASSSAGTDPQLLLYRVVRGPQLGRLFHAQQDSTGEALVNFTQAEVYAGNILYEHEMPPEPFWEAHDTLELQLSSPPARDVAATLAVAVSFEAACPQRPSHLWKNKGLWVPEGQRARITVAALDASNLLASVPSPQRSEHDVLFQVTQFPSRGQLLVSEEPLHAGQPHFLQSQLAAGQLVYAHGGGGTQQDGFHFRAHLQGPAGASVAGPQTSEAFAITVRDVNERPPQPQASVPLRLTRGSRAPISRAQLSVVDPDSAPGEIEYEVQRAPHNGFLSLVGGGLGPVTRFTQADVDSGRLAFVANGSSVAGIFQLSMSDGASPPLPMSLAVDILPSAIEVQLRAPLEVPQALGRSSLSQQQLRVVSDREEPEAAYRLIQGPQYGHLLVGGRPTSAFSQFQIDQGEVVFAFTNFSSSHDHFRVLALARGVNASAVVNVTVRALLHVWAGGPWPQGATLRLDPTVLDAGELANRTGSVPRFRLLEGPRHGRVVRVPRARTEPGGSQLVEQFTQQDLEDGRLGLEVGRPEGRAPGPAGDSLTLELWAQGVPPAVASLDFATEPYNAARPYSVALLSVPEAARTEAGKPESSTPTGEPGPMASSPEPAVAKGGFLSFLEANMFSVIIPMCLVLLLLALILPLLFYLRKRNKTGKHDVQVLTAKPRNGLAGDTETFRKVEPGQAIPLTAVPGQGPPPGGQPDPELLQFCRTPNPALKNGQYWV

B1: h763.74(#2)CD28 CAR (protein, not shown: large carriers)
chain: MDIKLTQSPSILSASVGDRVIITCRASQTIYKNLHWYQQKPHRSPRLLIKYGSDSISGIPSRFSGSGSGTEYTLTISSLQPDDFAIYYCLQGYSTPWTFGGGTKLTVLGGGGGSGGGGSGGGGSGGGGSQVQLVESGGGLVQPGGSLRLSCTASGYTFTDYSMHWVRKTPGKGLKWVGWINTATGEPTYADDFKGRFTISLDTSKNTVYLQMNSLRAEDTATYFCFSYYDYWGQGTTVTVSS
residual tumor cells after coculture of CAR-T cells with CSPG4+ WM115 melanoma cells: 11%

B4: h763.74(#5)CD28 CAR (protein, not shown: large carriers)
chain: MEIVMTQSPSTLSASVGDRVIITCRASQTIYKNLHWYQQKPGKSPKLLIKYGSDSISGVPSRFSGSGSGTEYTLTISSLQPDDFATYYCLQGYSTPWTFGQGTKLTVLGGGGGSGGGGSGGGGSGGGGSQVQLVESGGGLVQPGGSLRLSCTASGYTFTDYSMHWVRKAPGKGLEWVGWINTATGEPTYADDFKGRFTISLDTSKNTVYLQMNSLRAEDTAVYFCASYYDYWGQGTLVTVSS
residual tumor cells after coculture of CAR-T cells with CSPG4+ WM115 melanoma cells: 10%

Results, then the binder that gave them:

residual tumor cells after coculture of CAR-T cells with WM115 (CSPG4+) melanoma cells, E:T 1:5: 43.6%
B2: 763.74(A)4-1BB CAR (protein, not shown: small tags and cut ends)
chain: MQVKLKESGPELKKPGETVKISCKASGYTFTDYSMHWVKKTPGKGLKWLGWINTATGEPTYADDFKGRFAISLETSARTVYLQINNLRNEDTATYFCFSYYDYWGQGTTVTVSSGGGGSGGGGSGGGGDIKLSQSPSILSVTPGETVSLSCRASQTIYKNLHWYQQKSHRSPRLLIKYGSDSISGIPSRFTGSGSGTDYTLNINSVKPEDQGIYYCLQGYSTPWTFGGGTKLEIK

residual tumor cells after coculture of CAR-T cells with WM115 (CSPG4+) melanoma cells, E:T 1:5: 2.2%
B3: 763.74(A)CD28 CAR (protein, not shown: small tags and cut ends)
chain: B2 chain
